This data set concerns the target T1, MEIS1 (human, UniProt O00470 1-390).
T1 sequence: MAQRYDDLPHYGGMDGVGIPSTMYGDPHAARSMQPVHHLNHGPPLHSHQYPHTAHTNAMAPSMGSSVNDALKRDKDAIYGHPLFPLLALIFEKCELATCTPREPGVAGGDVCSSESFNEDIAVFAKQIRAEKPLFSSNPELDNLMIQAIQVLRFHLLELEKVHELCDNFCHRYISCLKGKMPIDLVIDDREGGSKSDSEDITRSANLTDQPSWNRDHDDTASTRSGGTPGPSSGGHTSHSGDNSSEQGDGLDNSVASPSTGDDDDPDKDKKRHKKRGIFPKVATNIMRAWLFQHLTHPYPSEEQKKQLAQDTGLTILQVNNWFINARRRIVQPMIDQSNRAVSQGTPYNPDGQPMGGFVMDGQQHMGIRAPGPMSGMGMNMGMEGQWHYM
Kind of data set: EMSA; EMSA: LightShift Chemiluminescent EMSA kit per manufacturer (buffer not given); protein stock in 50 mM Tris, 200 mM NaCl, 10 mM 2-mercaptoethanol, 10% glycerol, pH 7.5. Pull-down: streptavidin beads, 1 h at 4 C, PBS washes. As to conditions: protein: recombinant; tags: His6-MBP-TEV, tag removed by TEV protease; label: 5' biotin on both strands; blunt.

This is an account of results in PMC12085581, “Auricular malformations are driven by copy number variations in a hierarchical enhancer cluster and a dominant enhancer recapitulates human pathogenesis”.

B1: probe1 (hEC1 MEIS1 site) (dsDNA)
DNA 1: GGAAATGCGGCCCATCAATCATAAACTGATTACAAATTCGTCA
DNA 2: TGACGAATTTGTAATCAGTTTATGATTGATGGGCCGCATTTCC
As to B1, the binding result is on record as “binds”.
